Columns and labels:
Human trypsin = molecular target: T1, Human trypsin (Homo sapiens, UniProt P07477); experiment: Human trypsin-inhibiting activity, substrate S-2444; format: biochemical; details: purified sample, various concentrations; remaining activity vs buffer control (FIG. 14A-C)
T1 construct: purchased Calbiochem
Experimental: The purified sample obtained in Example 1-(5) was dissolved in 100 μl of distilled water. Concentration of this solution was determined based on its bovine trypsin-inhibiting activity using the aforementioned UTI as a standard. The solution was then diluted to various concentration levels with 0.1% BSA/0.2M triethanolamine-HCl buffer (pH 7.8) for the activity measurement. The aforementioned UTI was also diluted in the same manner.
Using the aforementioned synthetic compound S-2444 as a substrate, human trypsin-inhibiting activities of the diluted test samples and the positive control were measured in accordance with the method of Kassell (Kassell B., Methods in Enzymol., vol 19, pp.84-852, 1970) as follows.
Human trypsin (Calbiochem) was dissolved in 0.001M HCl to a concentration of 1,000 SU/ml and the solution was further diluted with 0.1% BSA/0.2M triethanolamine-HCl buffer (pH 7.8) to prepare 1.25 SU/ml of trypsin solution. 2 mM solution of S-2444 was prepared by dissolving it in distilled water.
(§1) Next, 100 μl of the test sample or positive control was mixed with 100 μl of the trypsin solution. After incubation at 37° C. for 10 minutes, 50 μl of the S-2444 solution was added to the mixture to start the reaction. The reaction was carried out at 37° C. for 20 minutes and then stopped by adding 50 μl of 50% acetic acid solution to the reaction mixture. Thereafter, absorbance at 405 nm was measured using a spectrophotometer.
(§2) In this instance, in order to eliminate absorbance of various solutions in the reaction mixture, a blank solution was prepared by mixing 100 μl of the trypsin solution with 50 μl of 50% acetic acid and then with 100 μl of each test sample or the positive control and with 50 μl of the S-2444 solution.
In this figure, human trypsin remaining activity was expressed by percentage based on the absorbance of a control reaction mixture in which 100 μl of 0.1% BSA/0.2M triethanolamine-HCl buffer (pH 7.8) was used instead of the test sample or the positive control.

[1] = molecular target: T2, Human neutrophil elastase (Homo sapiens, UniProt P08246); experiment: Human elastase-inhibiting activity, substrate STANA; format: biochemical; details: purified sample, various concentrations; remaining activity vs buffer control (FIG. 15A-C)
T2 construct: purchased CALBIOCHEM Type V
T2 sequence (P08246 30-267): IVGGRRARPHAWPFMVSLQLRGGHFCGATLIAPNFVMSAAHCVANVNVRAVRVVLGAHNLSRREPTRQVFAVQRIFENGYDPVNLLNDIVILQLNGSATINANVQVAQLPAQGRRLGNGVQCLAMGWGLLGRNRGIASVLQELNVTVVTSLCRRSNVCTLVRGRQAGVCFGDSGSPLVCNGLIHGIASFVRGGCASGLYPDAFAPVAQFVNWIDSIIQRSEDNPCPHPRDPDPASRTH
Experimental: The purified sample obtained in Example 1-(5) was dissolved in 100 μl of distilled water. Concentration of this solution was determined based on its bovine trypsin-inhibiting activity using the UTI as a standard. The solution was then diluted to various concentration levels with 0.1% BSA/27 mM CaCl2 /133 mM Tris-HCl buffer (pH 7.5) for use in the activity measurement. The aforementioned UTI was also diluted in the same manner. Human elastase-inhibiting activities in the test samples and the positive control were measured in accordance with the method of Ogawa et al. (Ogawa, M. et al., Res. Commun. Chem. Pathol. Pharmacol., vol.55, pp.271-274, 1987) using a synthetic compound STANA (Peptide Institute Inc.) as a substrate.
Human neutrophil elastase (Type V, CALBIOCHEM) was dissolved in 27 mM CaCl2 /[…] Tris-HCl buffer (pH 7.5) to a concentration of 100 μg/ml and the solution was further diluted with 0.1% BSA/27 mM CaCl2 /133 mM Tris-HCl buffer (pH 7.5) to prepare 4 μg/ml of elastase solution. 100 mM solution of STANA was prepared by dissolving it in N-methyl-2-pyrrolidone and the solution was further diluted with 0.1% BSA/27 mM CaCl2 /133 mM Tris-HCl buffer (pH 7.5) to prepare 20 mM of STANA solution.
as §1, with “50” for “100”, “elastase solution and 50 μl of 0.1% BSA/27 mM CaCl2 /133 mM Tris-HCl buffer (pH 7.5).” for “trypsin solution.”, “STANA” for “S-2444”
as §2, with “50” for “100”, “elastase” for “trypsin”, “control, 50 μl of 0.1% BSA/27 mM CaCl2 /133 mM Tris-HCl buffer (pH 7.5)” for “control”, “STANA” for “S-2444”
In this figure, human elastase remaining activity was expressed by percentage based on the absorbance of a control reaction mixture in which 50 μl of 0.1% BSA/27 mM CaCl2 /133 mM Tris-HCl buffer (pH 7.5) was used instead of the test sample or the positive control.

Row | Molecule | human trypsin-inhibiting activity (Human trypsin) | human elastase-inhibiting activity [1]
1 | CC51: polypeptide defined by the amino acid sequence of formula 1, purified from culture supernatant of E. coli JE5505 (pM560) (CNLPIVRGPCRAFIQLWAFDAVKGKCVLFPYGGCQGNGNKFYSEKECREYC) | activity was found | activity was found
2 | UTI: urinary trypsin inhibitor purified from human urine (Mochida Pharmaceutical), used as positive control (protein, glycoprotein (sugar moieties, as the filing says in general of UTI)) AVLPQEEEGSGGGQLVTEVTKKEDSCQLGYSAGPCMGMTSRYFYNGTSMACETFQYGGCMGNGNNFVTEKECLQTCRTVAACNLPIVRGPCRAFIQLWAFDAVKGKCVLFPYGGCQGNGNKFYSEKECREYCGVPGDGDEELLRFSN | activity was found | activity was found
3 | TL66: polypeptide defined by formula 8; known enzyme-digested fragment of urinary trypsin inhibitor, made in E. coli JE5505 (pM551) (protein) TVAACNLPIVRGPCRAFIQLWAFDAVKGKCVLFPYGGCQGNGNKFYSEKECREYCGVPGDGDEELL | activity was found | activity was found
4 | TN70: polypeptide defined by the amino acid sequence of formula 3, purified from culture supernatant of E. coli JE5505 (pM552) (protein) TVAACNLPIVRGPCRAFIQLWAFDAVKGKCVLFPYGGCQGNGNKFYSEKECREYCGVPGDGDEELLRFSN | activity was found | activity was found

Reference: US5792629A, “Isolated DNA encoding novel protease inhibitory polypeptide” (Mochida Pharmaceutical Co., Ltd., priority 1990, dated 1998)
